{"source": "paper PMC5758917", "about": "(Nucleic Acids Research, 2017)", "binders": {"B1": {"name": "p50 subunit of pol δ (natural protein)", "chain": "not shown"}}, "target": "T1, GST-E1 (HPV 11 E1 fused to GST) (human papillomavirus type 11, UniProt P04014 1-649)", "T1 sequence": "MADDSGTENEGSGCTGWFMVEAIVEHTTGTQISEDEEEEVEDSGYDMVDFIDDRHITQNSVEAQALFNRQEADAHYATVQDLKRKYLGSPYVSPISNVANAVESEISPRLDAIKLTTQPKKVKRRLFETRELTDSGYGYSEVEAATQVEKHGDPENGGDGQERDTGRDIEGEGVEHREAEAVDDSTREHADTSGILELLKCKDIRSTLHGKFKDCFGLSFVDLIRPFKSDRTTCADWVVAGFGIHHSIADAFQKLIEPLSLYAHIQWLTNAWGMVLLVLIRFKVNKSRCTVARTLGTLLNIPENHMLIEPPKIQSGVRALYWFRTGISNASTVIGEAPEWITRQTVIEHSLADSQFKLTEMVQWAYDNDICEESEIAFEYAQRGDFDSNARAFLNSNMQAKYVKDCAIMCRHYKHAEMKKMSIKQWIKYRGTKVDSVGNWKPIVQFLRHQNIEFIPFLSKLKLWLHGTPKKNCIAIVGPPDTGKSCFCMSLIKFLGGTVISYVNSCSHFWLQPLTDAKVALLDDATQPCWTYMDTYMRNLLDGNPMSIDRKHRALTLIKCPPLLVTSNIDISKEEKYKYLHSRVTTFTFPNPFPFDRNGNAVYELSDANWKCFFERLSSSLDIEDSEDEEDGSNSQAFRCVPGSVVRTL", "test": "far-Western, overlay or dot blot", "data": [{"binder": "B1", "values": [{"measurement": "binding result", "result": "binds"}]}]}
